Measurements reported in PMC5066494, “Interaction between RNA helicase ROOT INITIATION DEFECTIVE 1 and GAMETOPHYTIC FACTOR 1 is involved in female gametophyte development in Arabidopsis” (Journal of Experimental Botany, 2016).

Biological target: T1, GST-tagged GFA1 (GST-GFA1) (Arabidopsis, UniProt Q9LNC5 1-987)
T1 construct: GAMETOPHYTIC FACTOR 1 (GFA1), Arabidopsis, full-length cDNA in pGEX-4T-1; also called pGEX-4T-GFA1; source: E. coli BL21 (DE3), purified (glutathione-Sepharose 4B)
T1 sequence (looked up): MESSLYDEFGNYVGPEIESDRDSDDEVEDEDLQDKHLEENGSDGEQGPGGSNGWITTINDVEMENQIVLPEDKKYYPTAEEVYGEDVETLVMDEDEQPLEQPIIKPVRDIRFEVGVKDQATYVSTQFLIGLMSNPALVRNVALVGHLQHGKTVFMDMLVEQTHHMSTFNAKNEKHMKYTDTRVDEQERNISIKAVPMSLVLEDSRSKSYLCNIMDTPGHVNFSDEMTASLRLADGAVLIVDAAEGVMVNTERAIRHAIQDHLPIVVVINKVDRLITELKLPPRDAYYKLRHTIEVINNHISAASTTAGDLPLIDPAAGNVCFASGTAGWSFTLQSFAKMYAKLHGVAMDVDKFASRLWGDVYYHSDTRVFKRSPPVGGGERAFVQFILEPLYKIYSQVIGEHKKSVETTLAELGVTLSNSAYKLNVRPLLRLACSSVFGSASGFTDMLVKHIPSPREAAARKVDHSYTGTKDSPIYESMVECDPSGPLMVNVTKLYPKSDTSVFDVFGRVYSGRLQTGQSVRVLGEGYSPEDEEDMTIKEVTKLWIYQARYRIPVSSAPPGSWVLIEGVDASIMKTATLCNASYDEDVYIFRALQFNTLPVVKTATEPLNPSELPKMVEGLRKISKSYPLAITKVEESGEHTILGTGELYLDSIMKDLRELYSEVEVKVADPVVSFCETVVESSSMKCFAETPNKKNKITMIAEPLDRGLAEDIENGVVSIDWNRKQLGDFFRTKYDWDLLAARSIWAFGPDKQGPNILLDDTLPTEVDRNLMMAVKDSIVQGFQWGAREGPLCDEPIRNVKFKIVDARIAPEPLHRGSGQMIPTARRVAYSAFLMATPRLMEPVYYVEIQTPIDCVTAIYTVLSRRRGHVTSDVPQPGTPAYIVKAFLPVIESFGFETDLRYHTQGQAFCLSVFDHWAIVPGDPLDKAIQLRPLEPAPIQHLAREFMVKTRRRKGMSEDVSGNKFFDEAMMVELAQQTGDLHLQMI
Experiment: pull-down; GST or GST-GFA1 on glutathione-Sepharose 4B beads, His-RID1 added, 4 °C 1–2 h; 50mM Tris-HCl pH 7.5, 100mM NaCl; wash with 150mM NaCl, 25mM imidazole; immunoblot with anti-HIS antibody
Settings: both partners purified

B1: hexa-histidine-tagged RID1 (His-RID1) (natural protein, Arabidopsis, UniProt F4IE66 1-717, looked up)
chain: MPSMAQGELKSFVQNSRPNPKSPTVSPFSMRQKIAEHRRSLPIASVEKRLVEEVQKNDILIIVGETGSGKTTQLPQFLYNAGFCREGKMIGITQPRRIAAVTVAKRVAEECEVQLGQKVGYSIRFDDTTSGSTRLKYMTDGLLLREALLDPHLSRYSVIIVDEAHDRSVHTDVLLALLKKIQRTRSQPVSEKTEFGNVASQVQTTTRDANGPQQNGVLKGYQGRKLSPLKLIIMSASLDARVFSEYFGGAKAVHVQGRQFPVDILYTVHPESDYVDATLVTIFQIHFEEKPGDILVFLTGQDEIESVERLVQERLQNIPEDKRKLLPLAIFSALPSEQQMKVFAPAPTGFRKVILATNIAETSITIPGIRYVIDPGFVKARSYDPSKGMESLDVVPASKAQTLQRSGRAGREGPGKSFRLYPEREFEKLEDSTKPEIKRCNLSNIILQLKALGIDDIVGFDFIDKPSRGAIIKALAELHSLGALADDGKLENPVGYQMSRLPLEPVYSKALILANQFNCLEEMLITVAVLSVESIFYDPREKREEARTSKNHFASVEGDHLTYLSVYRESDEFLEKRKAAGSGNNIDKIMKKWCKENYVNSRSLKHARDIYRQIREHVEQIGFNVSSCGNDMLAFRRCLAASFFLKAAQRQLDGTYRALESGEVVHIHPTSVLFRAKPECVIFNELMQTSKKYIKNLTIIDSLWLSELAPHHFQTAE
notes: ROOT INITIATION … 1 (RID1), Arabidopsis, At1g26370, full-length cDNA in pET-28a-c(+); also called pET-28a-RID1; source: E. coli BL21 (DE3), purified (Ni Sepharose 6 Fast Flow)
binding result: binds
